US20260263609A1 (NEW YORK UNIVERSITY, published 2026)

Molecular target: T1, NRAS (human, UniProt P01111 1-174, limits assumed)
T1 construct: also called Neuroblastoma-RAS; NRAS (WT)
Assay: yeast display, cells sorted for binding to NRAS (WT);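 further: Yeast-displayed monobody variants with one or two residue substitutions, monobody sequences read from cells recovered by sorting for binding to wild-type NRAS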

Binder	binding result
Mb(NRAS_24) with the FG loop of SEQ ID NO: 15 (designed binder, length of the loop entry not visible) VSSVPTKLEVVAATPTSLLISWDAPAVTVDFYVITYGETGGYAWAYQEFKVPGSKSTATISGLSPGVDYTITVYASQVIGAIWKYYSPISINYRT	binds
Mb(NRAS_24) with the FG loop of SEQ ID NO: 51 (designed binder, length of the loop entry not visible) VSSVPTKLEVVAATPTSLLISWDAPAVTVDFYVITYGETGGYAWAYQEFKVPGSKSTATISGLSPGVDYTITVYAYQVIKSIWKYYSPISINYRT	binds
Mb(NRAS_24) with the FG loop of SEQ ID NO: 34 (designed binder, length of the loop entry not visible) VSSVPTKLEVVAATPTSLLISWDAPAVTVDFYVITYGETGGYAWAYQEFKVPGSKSTATISGLSPGVDYTITVYAYQTVGAIWKYYSPISINYRT	binds
Mb(NRAS_24) with the FG loop of SEQ ID NO: 43 (designed binder, length of the loop entry not visible) VSSVPTKLEVVAATPTSLLISWDAPAVTVDFYVITYGETGGYAWAYQEFKVPGSKSTATISGLSPGVDYTITVYAYQVIESIWKYYSPISINYRT	binds
Mb(NRAS_24) with the FG loop of SEQ ID NO: 52 (designed binder, length of the loop entry not visible) VSSVPTKLEVVAATPTSLLISWDAPAVTVDFYVITYGETGGYAWAYQEFKVPGSKSTATISGLSPGVDYTITVYAYQVIKYIWKYYSPISINYRT	binds
Mb(NRAS_24) with the FG loop of SEQ ID NO: 36 (designed binder, length of the loop entry not visible) VSSVPTKLEVVAATPTSLLISWDAPAVTVDFYVITYGETGGYAWAYQEFKVPGSKSTATISGLSPGVDYTITVYAYQVIAHIWKYYSPISINYRT	binds
Mb(NRAS_24) with the FG loop of SEQ ID NO: 32 (designed binder, length of the loop entry not visible) VSSVPTKLEVVAATPTSLLISWDAPAVTVDFYVITYGETGGYAWAYQEFKVPGSKSTATISGLSPGVDYTITVYAYQTHGAIWKYYSPISINYRT	binds
Mb(NRAS_24) with the FG loop of SEQ ID NO: 39 (designed binder, length of the loop entry not visible) VSSVPTKLEVVAATPTSLLISWDAPAVTVDFYVITYGETGGYAWAYQEFKVPGSKSTATISGLSPGVDYTITVYAYQVIDHIWKYYSPISINYRT	binds
Mb(NRAS_24) with the FG loop of SEQ ID NO: 19 (designed binder, length of the loop entry not visible) VSSVPTKLEVVAATPTSLLISWDAPAVTVDFYVITYGETGGYAWAYQEFKVPGSKSTATISGLSPGVDYTITVYAYQIHGAIWKYYSPISINYRT	binds
Mb(NRAS_24) with the FG loop of SEQ ID NO: 22 (designed binder, length of the loop entry not visible) VSSVPTKLEVVAATPTSLLISWDAPAVTVDFYVITYGETGGYAWAYQEFKVPGSKSTATISGLSPGVDYTITVYAYQIRGAIWKYYSPISINYRT	binds
Mb(NRAS_24) with the FG loop of SEQ ID NO: 37 (designed binder, length of the loop entry not visible) VSSVPTKLEVVAATPTSLLISWDAPAVTVDFYVITYGETGGYAWAYQEFKVPGSKSTATISGLSPGVDYTITVYAYQVIASIWKYYSPISINYRT	binds
Mb(NRAS_24) with the FG loop of SEQ ID NO: 28 (designed binder, length of the loop entry not visible) VSSVPTKLEVVAATPTSLLISWDAPAVTVDFYVITYGETGGYAWAYQEFKVPGSKSTATISGLSPGVDYTITVYAYQLLGAIWKYYSPISINYRT	binds
Mb(NRAS_24) with the FG loop of SEQ ID NO: 48 (designed binder, length of the loop entry not visible) VSSVPTKLEVVAATPTSLLISWDAPAVTVDFYVITYGETGGYAWAYQEFKVPGSKSTATISGLSPGVDYTITVYAYQVIHSIWKYYSPISINYRT	binds
Mb(NRAS_24) with the FG loop of SEQ ID NO: 47 (designed binder, length of the loop entry not visible) VSSVPTKLEVVAATPTSLLISWDAPAVTVDFYVITYGETGGYAWAYQEFKVPGSKSTATISGLSPGVDYTITVYAYQVIHHIWKYYSPISINYRT	binds
Mb(NRAS_24) with the FG loop of SEQ ID NO: 24 (designed binder, length of the loop entry not visible) VSSVPTKLEVVAATPTSLLISWDAPAVTVDFYVITYGETGGYAWAYQEFKVPGSKSTATISGLSPGVDYTITVYAYQIYGAIWKYYSPISINYRT	binds
Mb(NRAS_24) with the FG loop of SEQ ID NO: 27 (designed binder, length of the loop entry not visible) VSSVPTKLEVVAATPTSLLISWDAPAVTVDFYVITYGETGGYAWAYQEFKVPGSKSTATISGLSPGVDYTITVYAYQLHGAIWKYYSPISINYRT	binds
Mb(NRAS_24) with the FG loop of SEQ ID NO: 18 (designed binder, length of the loop entry not visible) VSSVPTKLEVVAATPTSLLISWDAPAVTVDFYVITYGETGGYAWAYQEFKVPGSKSTATISGLSPGVDYTITVYAYQIEGAIWKYYSPISINYRT	binds
Mb(NRAS_24) with the FG loop of SEQ ID NO: 26 (designed binder, length of the loop entry not visible) VSSVPTKLEVVAATPTSLLISWDAPAVTVDFYVITYGETGGYAWAYQEFKVPGSKSTATISGLSPGVDYTITVYAYQLEGAIWKYYSPISINYRT	binds
Mb(NRAS_24) with the FG loop of SEQ ID NO: 31 (designed binder, length of the loop entry not visible) VSSVPTKLEVVAATPTSLLISWDAPAVTVDFYVITYGETGGYAWAYQEFKVPGSKSTATISGLSPGVDYTITVYAYQTEGAIWKYYSPISINYRT	binds
Mb(NRAS_24) with the FG loop of SEQ ID NO: 46 (designed binder, length of the loop entry not visible) VSSVPTKLEVVAATPTSLLISWDAPAVTVDFYVITYGETGGYAWAYQEFKVPGSKSTATISGLSPGVDYTITVYAYQVIGALWKYYSPISINYRT	binds
Mb(NRAS_24) with the FG loop of SEQ ID NO: 21 (designed binder, length of the loop entry not visible) VSSVPTKLEVVAATPTSLLISWDAPAVTVDFYVITYGETGGYAWAYQEFKVPGSKSTATISGLSPGVDYTITVYAYQILGAIWKYYSPISINYRT	binds
Mb(NRAS_24) with the FG loop of SEQ ID NO: 23 (designed binder, length of the loop entry not visible) VSSVPTKLEVVAATPTSLLISWDAPAVTVDFYVITYGETGGYAWAYQEFKVPGSKSTATISGLSPGVDYTITVYAYQIVGAIWKYYSPISINYRT	binds
Mb(NRAS_24) with the FG loop of SEQ ID NO: 30 (designed binder, length of the loop entry not visible) VSSVPTKLEVVAATPTSLLISWDAPAVTVDFYVITYGETGGYAWAYQEFKVPGSKSTATISGLSPGVDYTITVYAYQTDGAIWKYYSPISINYRT	binds
Mb(NRAS_24) with the FG loop of SEQ ID NO: 45 (designed binder, length of the loop entry not visible) VSSVPTKLEVVAATPTSLLISWDAPAVTVDFYVITYGETGGYAWAYQEFKVPGSKSTATISGLSPGVDYTITVYAYQVIGAICKYYSPISINYRT	binds
Mb(NRAS_24) with the FG loop of SEQ ID NO: 33 (designed binder, length of the loop entry not visible) VSSVPTKLEVVAATPTSLLISWDAPAVTVDFYVITYGETGGYAWAYQEFKVPGSKSTATISGLSPGVDYTITVYAYQTLGAIWKYYSPISINYRT	binds

Further lines, results first:

binding result	Binder
binds	Mb(NRAS_24) with the FG loop of SEQ ID NO: 35 (designed binder, length of the loop entry not visible) VSSVPTKLEVVAATPTSLLISWDAPAVTVDFYVITYGETGGYAWAYQEFKVPGSKSTATISGLSPGVDYTITVYAYQTYGAIWKYYSPISINYRT
binds	Mb(NRAS_24) with the FG loop of SEQ ID NO: 50 (designed binder, length of the loop entry not visible) VSSVPTKLEVVAATPTSLLISWDAPAVTVDFYVITYGETGGYAWAYQEFKVPGSKSTATISGLSPGVDYTITVYAYQVIKHIWKYYSPISINYRT
binds	Mb(NRAS_24) with the FG loop of SEQ ID NO: 25 (designed binder, length of the loop entry not visible) VSSVPTKLEVVAATPTSLLISWDAPAVTVDFYVITYGETGGYAWAYQEFKVPGSKSTATISGLSPGVDYTITVYAYQLDGAIWKYYSPISINYRT
binds	Mb(NRAS_24) with the FG loop of SEQ ID NO: 41 (designed binder, length of the loop entry not visible) VSSVPTKLEVVAATPTSLLISWDAPAVTVDFYVITYGETGGYAWAYQEFKVPGSKSTATISGLSPGVDYTITVYAYQVIDYIWKYYSPISINYRT
binds	Mb(NRAS_24) with the FG loop of SEQ ID NO: 17 (designed binder, length of the loop entry not visible) VSSVPTKLEVVAATPTSLLISWDAPAVTVDFYVITYGETGGYAWAYQEFKVPGSKSTATISGLSPGVDYTITVYAYQIDGAIWKYYSPISINYRT
binds	Mb(NRAS_24) with the FG loop of SEQ ID NO: 44 (designed binder, length of the loop entry not visible) VSSVPTKLEVVAATPTSLLISWDAPAVTVDFYVITYGETGGYAWAYQEFKVPGSKSTATISGLSPGVDYTITVYAYQVIEYIWKYYSPISINYRT
binds	Mb(NRAS_24) with the FG loop of SEQ ID NO: 20 (designed binder, length of the loop entry not visible) VSSVPTKLEVVAATPTSLLISWDAPAVTVDFYVITYGETGGYAWAYQEFKVPGSKSTATISGLSPGVDYTITVYAYQIKGAIWKYYSPISINYRT
binds	Mb(NRAS_24) with the FG loop of SEQ ID NO: 42 (designed binder, length of the loop entry not visible) VSSVPTKLEVVAATPTSLLISWDAPAVTVDFYVITYGETGGYAWAYQEFKVPGSKSTATISGLSPGVDYTITVYAYQVIEHIWKYYSPISINYRT
binds	Mb(NRAS_24) with the FG loop of SEQ ID NO: 40 (designed binder, length of the loop entry not visible) VSSVPTKLEVVAATPTSLLISWDAPAVTVDFYVITYGETGGYAWAYQEFKVPGSKSTATISGLSPGVDYTITVYAYQVIDSIWKYYSPISINYRT
binds	Mb(NRAS_24) with the FG loop of SEQ ID NO: 38 (designed binder, length of the loop entry not visible) VSSVPTKLEVVAATPTSLLISWDAPAVTVDFYVITYGETGGYAWAYQEFKVPGSKSTATISGLSPGVDYTITVYAYQVIAYIWKYYSPISINYRT
binds	Mb(NRAS_24) with the FG loop of SEQ ID NO: 16 (designed binder, length of the loop entry not visible) VSSVPTKLEVVAATPTSLLISWDAPAVTVDFYVITYGETGGYAWAYQEFKVPGSKSTATISGLSPGVDYTITVYAYHVIGAIWKYYSPISINYRT
binds	Mb(NRAS_24) with the FG loop of SEQ ID NO: 49 (designed binder, length of the loop entry not visible) VSSVPTKLEVVAATPTSLLISWDAPAVTVDFYVITYGETGGYAWAYQEFKVPGSKSTATISGLSPGVDYTITVYAYQVIHYIWKYYSPISINYRT
binds	Mb(NRAS_24) with the FG loop of SEQ ID NO: 29 (designed binder, length of the loop entry not visible) VSSVPTKLEVVAATPTSLLISWDAPAVTVDFYVITYGETGGYAWAYQEFKVPGSKSTATISGLSPGVDYTITVYAYQLYGAIWKYYSPISINYRT
